US20160200813A1
One block for each binder: values may come before it.

Key:
[1] = molecular target: Mouse LRP-8 expressed on HEK293 cells (mouse) (UniProt Q924X6); assay: cell-based binding assay, mLRP8
[2] = molecular target: Mouse LRP-8 expressed on HEK293 cells (mouse) (UniProt Q924X6); assay: fit of the FACS titration of FIG. 12A on mLRP8-transfected HEK293 cells; the column head prints EC50 only, nM is from legend paragraph 78 and the axis of FIG. 12A
[3] = molecular target: Mouse LRP-8 expressed on HEK293 cells (mouse) (UniProt Q924X6); assay: cell-based MSD-ECL binding on cells overexpressing mouse LRP-8 variant 1 (mLRP8 assay); curve without plateau up to 10000 ng/ml
[4] = molecular target: Mouse LRP-8 expressed on HEK293 cells (mouse) (UniProt Q924X6); assay: cell-based binding on MOUSE LRP8-HEK293, supernatant 1:5
[5] = molecular target: Mouse LRP-8 expressed on HEK293 cells (mouse) (UniProt Q924X6); assay: cell-based MSD, 1 to 25, mouse-LRP8-HEK293
[6] = molecular target: Mouse LRP-8 expressed on HEK293 cells (mouse) (UniProt Q924X6); assay: cell-based MSD, 1 to 5, mouse-LRP8-HEK293
[7] = molecular target: Mouse LRP-8 expressed on HEK293 cells (mouse) (UniProt Q924X6); assay: cell-based binding on MOUSE LRP8-HEK293, supernatant 1:25
[8] = molecular target: Mouse LRP-8 expressed on HEK293 cells (mouse) (UniProt Q924X6); assay: cell-based MSD, 1 to 125, mouse-LRP8-HEK293
[9] = molecular target: Mouse LRP-8 expressed on HEK293 cells (mouse) (UniProt Q924X6); assay: cell-based binding on MOUSE LRP8-HEK293, supernatant 1:125
[10] = molecular target: Mouse LRP-8 expressed on HEK293 cells (mouse) (UniProt Q924X6); assay: cell-based MSD binding assay on 293H-mLRP8 cells; curve label 11H1-15
[11] = molecular target: Mouse LRP-8 expressed on HEK293 cells (mouse) (UniProt Q924X6); assay: cell-based MSD binding assay on 293H-mLRP8 cells; curve label 11H1-20
[12] = molecular target: Mouse LRP-8 expressed on HEK293 cells (mouse) (UniProt Q924X6); assay: cell-based MSD binding assay on 293H-mLRP8 cells; curve label 11H1-16, no plateau up to about 600 nM
[13] = molecular target: Mouse LRP-8 expressed on HEK293 cells (mouse) (UniProt Q924X6); assay: cell-based MSD binding assay on 293H-mLRP8 cells; curve label 11H1-17
[14] = molecular target: Mouse LRP-8 expressed on HEK293 cells (mouse) (UniProt Q924X6); assay: cell-based MSD binding assay on 293H-mLRP8 cells; curve label 11H1-19
[15] = molecular target: Mouse LRP-8 expressed on HEK293 cells (mouse) (UniProt Q924X6); assay: cell-based MSD binding assay on 293H-mLRP8 cells; curve label 11H1-18
[16] = molecular target: Mouse LRP-8 expressed on HEK293 cells (mouse) (UniProt Q924X6); assay: cell-based MSD binding assay on 293H-mLRP8 cells; curve label 11H1-21, no plateau up to about 600 nM
[17] = molecular target: Mouse LRP-8 expressed on HEK293 cells (mouse) (UniProt Q924X6); assay: mLRP8 cell binding; chimeric VL / chimeric VH
[18] = molecular target: Mouse LRP-8 expressed on HEK293 cells (mouse) (UniProt Q924X6); assay: FACS, mouse LRP8 cells

EC50 [1]: 22 nM | EC50 [2]: 2.61 nM | EC50 [3]: 4.4 µg/mL
B1: anti-LRP-8 BGK-2C8.8C antibody (antibody, V domains shown)
VH: EVQLVESGGGLVQPGRSLKLSCAASGFTVSDYYMAWVRQAPKKGLEWVASISYEGSSTYYGDSVKGRFTISRDNAKSILYLQMNSLRSEDTATYYCARPLRYYGYNYRFAYWGQGTLVTVSS
VL: DIQMSQSPPVLSASVGDRVTLSCKASQNIHKNLDWYQQKHGEAPKLLIYYTDNLQTGIPSRFSGSGSGTDYTLTISSLQPEDVATYYCYQYNSGPTFGAGTKLELQ

EC50 [11]: 21 nM
B4: LRP8-ML199.11H1.5B2 VH1/VL1A.20 (antibody, V domains shown)
VH: EVQLVESGGGLVKPGGSLRLSCAASRFTFSNYGMSWVRQAPGKGLEWVSTISSGGRYTYYPDHVKGRFTISRDNAKNSLYLQMNSLRAEDTAVYYCARDYLYAMDYWGQGTTVTVSS
VL: DVVMTQSPLSLPVTPGEPASISCRSSQSLVYSWGNTYLHWYLQKPGQSPQVLMYKVSNRFSGVPDRFSGSGSGTDFTLKISRVEAEDVGVYFCSQSTHVPLTFGQGTKLEIK

EC50 [14]: 24 nM
B7: LRP8-ML199.11H1.5B2 VH1/VL1A.19 (antibody, V domains shown)
VH: EVQLVESGGGLVKPGGSLRLSCAASRFTFSNYGMSWVRQAPGKGLEWVSTISSGGRYTYYPDHVKGRFTISRDNAKNSLYLQMNSLRAEDTAVYYCARDYLYAMDYWGQGTTVTVSS
VL: DVVMTQSPLSLPVTPGEPASISCRSSQSLVYSRGNTYLHWYLQKPGQSPQVLMYKVSNRFSGVPDRFSGSGSGTDFTLKISRVEAEDVGVYFCSQSTHVPLTFGQGTKLEIK

EC50 [16]: 249 nM
B9: LRP8-ML199.11H1.5B2 VH1/VL1A.21 (antibody, V domains shown)
VH: EVQLVESGGGLVKPGGSLRLSCAASRFTFSNYGMSWVRQAPGKGLEWVSTISSGGRYTYYPDHVKGRFTISRDNAKNSLYLQMNSLRAEDTAVYYCARDYLYAMDYWGQGTTVTVSS
VL: DVVMTQSPLSLPVTPGEPASISCRSSQSLVYSPGNTYLHWYLQKPGQSPQVLMYKVSNRFSGVPDRFSGSGSGTDFTLKISRVEAEDVGVYFCSQSTHVPLTFGQGTKLEIK

EC50 [1]: 0.32 nM | EC50 [17]: 0.95 nM | FACS (ratio +/-) [18]: 283
B10: chimeric anti-LRP-8 ML199.11H1.5B2 antibody [mu/hu IgG1/k] LALA (antibody, V domains shown)
VH: EVQLVESGGDLVKPGGSLKLSCAASRFTFSNYGMSWVRQTPDKRLEWVATISSGGRYTYYPDSVKGRFTISRDNAKNTLYLQMSSLRSEDTAMYYCARDYLYAMDYWGQGTSVTVSS
VL: DVVMTQTPLSLPVSLGDQASISCRSSQSLVYSNGNTYLHWYLQKPGQSPKVLMYKVSNRFSGVSDRFSGSGSGTDFTLKISRVEAEDLGVYFCSQSTHVPLTFGAGTKLELK

Continued, binder first:

B2: BGK-7F7 (GENOVAC candidate clone of Table 17) (antibody, V domains shown)
VH: QVTLKESGPGILQPSQTLSLTCTFSGFSLSTYGLGVGWIRQPSGKGLEWLANIWWDDAKYYNPSLKNRLTISKDTSNNQAFLKIPNVDTADTARYYCARTTKPYYFDYWGQGVMVTVSS
VL: HFVLAQPNSVSTNLGSTVKLSCKRSTANIGSNYVNWYQQHEGRSPTTLIYRDDRRPDGVPDRFSGSIDRSSNSALLTINNVQTEDEADYFCQSYSSGINIFGGGTKLTVL
fold over isotype control [4]: 27.4 fold | fold over IgG control [5]: 6 fold | fold over IgG control [6]: 3.5 fold | fold over isotype control [7]: 21.6 fold | fold over IgG control [8]: 5.3 fold | fold over isotype control [9]: 13.1 fold

B3: LRP8-ML199.11H1.5B2 VH1/VL1A.15 (antibody, V domains shown)
VH: EVQLVESGGGLVKPGGSLRLSCAASRFTFSNYGMSWVRQAPGKGLEWVSTISSGGRYTYYPDHVKGRFTISRDNAKNSLYLQMNSLRAEDTAVYYCARDYLYAMDYWGQGTTVTVSS
VL: DVVMTQSPLSLPVTPGEPASISCRSSQSLVYSNENTYLHWYLQKPGQSPQVLMYKVSNRFSGVPDRFSGSGSGTDFTLKISRVEAEDVGVYFCSQSTHVPLTFGQGTKLEIK
EC50 [10]: 3.2 nM

B5: LRP8-ML199.11H1.5B2 VH1/VL1A.16 (antibody, V domains shown)
VH: EVQLVESGGGLVKPGGSLRLSCAASRFTFSNYGMSWVRQAPGKGLEWVSTISSGGRYTYYPDHVKGRFTISRDNAKNSLYLQMNSLRAEDTAVYYCARDYLYAMDYWGQGTTVTVSS
VL: DVVMTQSPLSLPVTPGEPASISCRSSQSLVYSTGNTYLHWYLQKPGQSPQVLMYKVSNRFSGVPDRFSGSGSGTDFTLKISRVEAEDVGVYFCSQSTHVPLTFGQGTKLEIK
EC50 [12]: 625 nM

B6: LRP8-ML199.11H1.5B2 VH1/VL1A.17 (antibody, V domains shown)
VH: EVQLVESGGGLVKPGGSLRLSCAASRFTFSNYGMSWVRQAPGKGLEWVSTISSGGRYTYYPDHVKGRFTISRDNAKNSLYLQMNSLRAEDTAVYYCARDYLYAMDYWGQGTTVTVSS
VL: DVVMTQSPLSLPVTPGEPASISCRSSQSLVYSNLNTYLHWYLQKPGQSPQVLMYKVSNRFSGVPDRFSGSGSGTDFTLKISRVEAEDVGVYFCSQSTHVPLTFGQGTKLEIK
EC50 [13]: 0.7 nM

B8: LRP8-ML199.11H1.5B2 VH1/VL1A.18 (antibody, V domains shown)
VH: EVQLVESGGGLVKPGGSLRLSCAASRFTFSNYGMSWVRQAPGKGLEWVSTISSGGRYTYYPDHVKGRFTISRDNAKNSLYLQMNSLRAEDTAVYYCARDYLYAMDYWGQGTTVTVSS
VL: DVVMTQSPLSLPVTPGEPASISCRSSQSLVYSNKNTYLHWYLQKPGQSPQVLMYKVSNRFSGVPDRFSGSGSGTDFTLKISRVEAEDVGVYFCSQSTHVPLTFGQGTKLEIK
EC50 [15]: 0.8 nM
